Holding throughout (type): cell-based
The subject of data set [1] is primary human mast cells. Kind of data set: mast cell degranulation (β-hexosaminidase release). The note with it: 0.05-100 nM, 90 min. On the procedure:
Primary human mast cells were cultured from peripheral human blood according to the methods described by Saito et al., (supra). Mast cells, which had been in liquid culture for a minimum of one week, were pre-treated with 5% Ag-specific IgE JW8 (in-house batch ACE 27283), 95% non-specific monoclonal human IgE (Abbiotec, Cat #12030635, San Diego, CA) and 10 ng/mL rhIL-4 (R&D Systems Cat #204-IL, Minneapolis, MN) for 5 days at 37° C. The cells were then incubated with increasing concentrations (0.05-100 nM) of an isotype control IgG, the anti-human cKIT Abs, 20376 and NEG085, the anti-IgE Ab, LE27, or the NIP(5)BSA antigen, in the presence of a goat anti-human IgG (H+L) Fc-specific Ab (Jackson ImmunoResearch, Cat #109-005-008-JIR, West Grove, PA) for 90 min at 37° C. Cells were then centrifuged and the supernatants were transferred into 96-well black-walled plates prior to the addition of the β-hexosaminidase substrate. Following 90 min incubation at 37° C., the reaction was stopped by the addition of tris-base (Sigma, Cat #T1503-500G, pH 12, St. Louis, MO) and the fluorescence intensity was recorded on the Envision® plate reader.

The test system of data set [2] is surface cKIT on GIST-T1 cells. The data set is described as follows: cKIT Ab-mediated internalization by flow cytometry. Particulars: 10 μg/ml, 37° C., 30 min to 24 hr. How it is done:
The kinetics of cKIT antibody mediated internalization was evaluated by treating with antibody in a cell monolayer using a temperature shift method and flow cytometry readout. GIST-T1 (kindly provided by Dr. Takahiro Taguchi, Kochi U., Japan) cells were seeded at 2.5×10E5 cells/well in five 12-well tissue culture treated plates (BD Falcon 353043). The cells were incubated in a tissue culture incubator at 37° C. with 5% CO2 overnight. The following day medium was removed and replaced with 450 μl fresh medium. The cKIT antibodies NEG085, 20376 and an isotype control were prepared at 10×10 μg/ml concentration in appropriate cell culture medium and 50 μl of test cKIT antibody or isotype was added per well with final concentration of 10 μg/ml. All cells were incubated for 1 hr on ice, followed by two washes with 1 mL 1× Phosphate buffered saline (PBS) and resuspended in 500 μl cell culture medium. […] The following day, all samples were analyzed using the BD FACSCanto II 0 equipment using a HTS system (BD Biosciences, San Jose, CA). Samples were analyzed with FlowJo software to obtain the Geometric Mean values of fluorescence for the Phycoerythrin channel, FIG. 4A is a plot of % of initial cell surface binding vs Geometric Mean-PE 4° C. binding/Geometric Mean-PE timepoint at 37° C.×100.
A general note: In flow cytometry, cells or beads pass a laser one at a time.

Data set [3] relates to primary human mast cells. Kind of data set: mast cell apoptosis (Caspase-Glo 3/7). Particulars: 0.05-100 nM, 1.6 nM rhSCF, 48 h. On the procedure:
Primary human mast cells were cultured from peripheral human blood according to the methods described by Saito et al., Nature Protocols 2006; 1(4):2178-2183. Mast cells, which had been in liquid culture for a minimum of one week, were incubated with increasing concentrations (0.05-100 nM) of the anti-human cKIT Abs, NEG085 and 20376, or an isotype control IgG, in the presence of 1.6 nM rhSCF (Genscript, Cat #Z00400, Piscataway, NJ), for 48 h at 37° C. before the addition of the Caspase-Glo® 3/7 reagent (Promega, Cat #G8093, Madison, WI) to measure apoptosis. Following 30 min incubation at room temperature, luminescence was recorded on the BioTek® Synergy plate reader (BioTek, Winooski, VT).

Entries after “also recorded” stand apart in the source; their conditions may differ.

B1: NEG085: anti-cKIT antibody of Table 3, VH SEQ ID NO 82, VL SEQ ID NO 91 (antibody, listed as Homo sapiens, V domains shown)
VH: EVQLVESGGGLVQPGGSLRLSCAASGFAFSGYYMAWVRQAPGKGLEWVANINYPGSSTYYLDSVKGRFTISRDNAKNSLYLQMNSLRAEDTAVYYCARGDYYGTTYWYFDVWGQGTTVTVSS
VL: DIQMTQSPSSLSASVGDRVTITCRASQSISSYLNWYQQKPGKAPKLLIYYTSRLQSGVPSRFSGSGSGTDFTLTISSLQPEDFATYYCQQGRRLWSFGGGTKVEIK
In the case of B1, the “degranulation of primary human mast cells” value with primary human mast cells [1] is on record as “do not mediate primary human mast cell degranulation; also recorded: do not induce mast cell degranulation”. In data set [2], the “internalization of surface cKIT on GIST-T1 cells” value is recorded as “mediate rapid internalization; also recorded: rapidly internalized”. The “apoptosis of primary human mast cells” value in the data set with primary human mast cells [3] is reported as “do not mediate primary human mast cell apoptosis; also recorded: do not lead to apoptosis”.
